Experiment [1] has as its target T1, cynomolgus TROP2-his protein (cynomolgus monkey, UniProt P09758 27-272 (human entry), limits assumed).
T1 construct: no cleavage site is stated; also called Cynomolgus monkey TROP2-his protein; monkey TROP2
T1 chain: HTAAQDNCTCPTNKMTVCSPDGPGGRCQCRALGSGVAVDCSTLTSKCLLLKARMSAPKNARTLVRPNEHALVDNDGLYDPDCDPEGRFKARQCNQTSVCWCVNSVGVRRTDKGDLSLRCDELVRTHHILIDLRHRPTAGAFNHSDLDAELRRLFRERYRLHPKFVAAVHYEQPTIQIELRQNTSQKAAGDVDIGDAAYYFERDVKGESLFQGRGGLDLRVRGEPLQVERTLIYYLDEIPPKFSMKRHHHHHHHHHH
In words: SPR Biacore, antibody captured on chip, TROP2-his analyte. For orientation: In SPR one partner is held on a chip, and binding of the other changes the refractive index at the surface.

Experiment [2] addresses T2, human TROP2-his protein (human, UniProt P09758 27-274).
T2 construct: Biotin-labelled in the ELISAs, unlabelled analyte in Biacore; also called biotin-labeled human TROP2-his protein; biotin human Trop2-his
T2 sequence: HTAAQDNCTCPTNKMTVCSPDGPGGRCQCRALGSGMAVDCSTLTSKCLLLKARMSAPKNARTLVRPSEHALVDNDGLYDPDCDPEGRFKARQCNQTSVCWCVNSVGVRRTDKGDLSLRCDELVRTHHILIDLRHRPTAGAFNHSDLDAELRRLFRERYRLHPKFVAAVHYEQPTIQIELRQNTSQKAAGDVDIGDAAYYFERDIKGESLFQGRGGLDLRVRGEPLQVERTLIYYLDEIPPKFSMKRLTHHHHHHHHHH
The description is as above.

The target of experiment [3] is T2, human TROP2-his protein. In words: SPR Biacore T200, supernatant antibody captured on anti-human IgG CM5 chip, 40 nM human TROP2-his. The protocol: The goat anti-human IgG (GE healthcare, Cat #BR100839, Human Antibody Capture Kit) was covalently linked to a CM5 chip instead of goat anti-mouse IgG. […] The human TROP2-his protein at the concentration of 40 nM was used instead of serially diluted human TROP2-his protein.

B1: mouse antibody A1E4F7D4 (antibody, V domains shown)
VH: QVQLQQSGAELAKPGTSVKMSCEASGYSFTTHWIHWMKQRPGQGLEWIGTIFPSNAYAVYNQKFRDRAIMTADRSSTTAYIQLTGLTSEDSAVYYCARASYFDYWGQGTTLTVSS
VL: DILLTQSPATLSVSPGERVTFSCRASQNIGTSIHWFQQRTTGSPRLLIKYASESISGIPSRFSGSGSGTDFTLHINSVESEDIAHYYCQHSHSWPFTFGSGTKLEIQ
notes: Mouse monoclonal IgG purified from hybridoma supernatant; also called Mouse A1E4F7D4
B1: in experiment [1], the affinity, expressed as Kd, was 48.9 pM; the koff – broadly, the rate constant with which the complex falls apart – turned out to be 4.54e-05 s⁻¹; the kon (as a rule, the rate constant with which the complex forms) amounted to 930000 M⁻¹ s⁻¹. Also, in experiment [2], the dissociation constant (Kd) (commonly the concentration at which binding is half-saturated) amounted to 55.4 pM, the koff came to 4.7e-05 s⁻¹ and the kon was 849000 M⁻¹ s⁻¹.

B2: huA1E4F7D4-V16 (antibody, human IgG1, kappa, V domains shown)
VH: QVQLVQSGAEVKKPGASVKVSCKASGYSFTTHWIHWVRQAPGQGLEWIGTIFPSNAYAVYNQKFRDRATMTADTSISTAYIELSRLRSDDTAVYYCARASYFDYWGQGTTVTVSS
VL: EIVLTQSPATLSLSPGERATLSCRASQNIGTSIHWFQQKPGGAPRLLIKYASESISGIPSRFSGSGSGTDFTLTISSLEPEDFAVYYCQHSHSWPFTFGQGTKLEIKR
notes: Positions of the X residues are given in the claims; also called humanized antibody huA1E4F7D4-V16
As for B2, in experiment [3], the Kd stood at 137 pM, the koff is 0.000175 s⁻¹ and the kon came out at 1.28e+06 M⁻¹ s⁻¹.

For the origin of these results see patent publication US20240207432A1 (BIOSION, published 2024).
